Measurements: patent US20250171562A1 (ALK ABELL, published 2025)

Assays:
[1] = target: T1, IgE-Fc Cε3-4 (human, UniProt P01854-1 209-428, limits assumed); assay: ELISA, immobilised IgE-Fc Cε3-4
T1 construct: domain: Cε3-Cε4; coated at 2 µg/mL in the ELISA; also called IgE-Fc Cε3-Cε4
Experimental: SdAb monomers of interest (table 1) and identified in example 2 were amplified from pNT plasmid by PCR and recloned in pET22b plasmid by SLICE cloning reaction. Thereby, a pelB signal sequence and a C-terminal his/HA tag were added to the sdAbs allowing for secretion into periplasmic space and subsequent purification and detection. SdAbs were expressed in E. coli Rosetta (DE3) cells using 2YT media. Expression was induced in early exponential phase with 0.5 mM IPTG and carried overnight at 20° C.-25° C. Purification of sdAbs from supernatant or supernatant+periplasmic extract was performed by IMAC using HisTrap excel column (Cytiva) as first step and by SEC with a Hiload 16-600 Superdex® 75 pg (Cytiva) column as second step. Size and purity of each sdAbs were evaluated on a 15% acrylamide SDS-PAGE. Then, immunoreactivity of sdAbs against immobilized IgE-Fc Cε2-4 and IgE-Fc Cε3-4 was analysed by ELISA. IgE-Fc were coated at 2 μg/mL overnight in a Nunc MaxiSorp plate (ThermoFisher). After blocking sdAbs were added at a 1:10 dilution in TBS and incubated 3h at room temperature. Detection was performed using a mouse anti-HA antibody (ThermoFisher) and an anti-mouse IgG AP conjugated (Sigma Aldrich).

[2] = target: T2, recombinant human IgE (human, UniProt P01854-1 1-428); assay: IgE-FcεRIα displacement ELISA
T2 construct: made in-house (ALK); preloaded on immobilised FcεRIα in the displacement ELISA
Method in brief: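 sdAbs at pM–μM were incubated 1 h on preformed complexes of 13 ng/ml recombinant human IgE with avi-tag-biotinylated human FcεRIα captured on streptavidin.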

T2 sequence (P01854 other isoform, or with tags, fused parts or gaps): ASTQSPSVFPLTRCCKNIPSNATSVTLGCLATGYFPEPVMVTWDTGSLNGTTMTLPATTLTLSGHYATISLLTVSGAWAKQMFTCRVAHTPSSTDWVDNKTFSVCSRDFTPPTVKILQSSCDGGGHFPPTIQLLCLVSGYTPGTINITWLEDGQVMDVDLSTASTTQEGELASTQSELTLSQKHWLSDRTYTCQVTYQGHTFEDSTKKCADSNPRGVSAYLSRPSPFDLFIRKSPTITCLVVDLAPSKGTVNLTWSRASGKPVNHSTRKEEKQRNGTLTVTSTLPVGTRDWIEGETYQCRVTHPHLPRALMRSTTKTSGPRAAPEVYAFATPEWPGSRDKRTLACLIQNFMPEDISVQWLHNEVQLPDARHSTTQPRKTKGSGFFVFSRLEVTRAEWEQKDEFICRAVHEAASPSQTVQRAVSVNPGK
T1 sequence (P01854 other isoform, or with tags, fused parts or gaps limits assumed): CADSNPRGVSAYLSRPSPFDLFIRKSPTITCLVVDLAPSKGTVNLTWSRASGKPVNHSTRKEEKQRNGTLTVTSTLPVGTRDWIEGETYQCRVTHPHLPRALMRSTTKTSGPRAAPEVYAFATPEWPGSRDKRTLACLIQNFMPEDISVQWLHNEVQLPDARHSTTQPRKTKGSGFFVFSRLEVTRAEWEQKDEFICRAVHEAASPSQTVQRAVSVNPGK

binding result [1]	Max effect [2] [%]	EC50 [2] [nM]	Binder
no binding	0	–	sdAb E3 (VHH) VHH: DVQLQESGGGLVQAGGSLRLACAASGRTLSSYVVSWFRQAPGKERKFVAAITWSGLSTTYLDSVQGRFTISRDNTKDTVYLQMNSLKPQDTAIYYCAAGPNIPSILRTRESEYAYWGQGTQVTVS
–	> 95	4000	F1A1(G4S)4 (bispecific antibody) DVQLQESGGGLVQAGGSLKLSCAASGGSLSRYDMGWFRQAPGKEREFVARISWSGTTKYYADAVKGRFAISRDNAKNTVYLQMNSLKPEDTAVYYCAAAFYGNRGYYDVNAYTSSGQGTQVTVSGGGGSGGGGSGGGGSGGGGSEVQLLESGGGLVQPGGSLRLSCAASGFTFGNYDMAWVRQAPGKRPEWVSSIDTGGDITHYADSVKGRFTISRDNAKNTLYLQMNSLRPEDTAVYWCATDEEYALGPNEFDYYGQGTLVTVS
no binding	< 20	–	sdAb E1 (VHH) VHH: DVQLQESGGGLVQAGGSLRLSCLASGRTFTTTSGYNMGWFRQAPGKEREFVAGIKWVSGSNRAYAESVKGRFTISRDNAKNTVYLQMNSLKPEDTAVYYCAAATGQSYVPIREYEYVYWGQGTQVTVS
no binding	0	–	sdAb E2 (VHH) VHH: DVQLQESGGGLVQAGGSLRLSCAASGRTISRYAVGWFRRPPAKEREFIGINWSGGSTTYADSAEGRFIISRDNAKNTVYLQMNSLKPEDTAVYYCAVPSVLVQGGISNPSQYDYWGQGTQVTVS
–	> 95	10	A1D2(G4S)4 (bispecific antibody) EVQLLESGGGLVQPGGSLRLSCAASGFTFGNYDMAWVRQAPGKRPEWVSSIDTGGDITHYADSVKGRFTISRDNAKNTLYLQMNSLRPEDTAVYWCATDEEYALGPNEFDYYGQGTLVTVSGGGGSGGGGSGGGGSGGGGSDVQLQESGGGLVEAGGSLRLSCVASGRTFSGWSMGWFRQAPGKEREFVAAISWVGSWIGGTVYSNSVKGRFTISRDNARTTVYLQMNSLKPEDTAVYFCAAANSETPRIFASEYDYWGQGTQVTVS
no binding	35	–	sdAb F5 (VHH) VHH: DVQLQESGGGLVQPGGSLRLSCAASGSIFSIDIMGWYRQAPGKQRELVATMPEGNYINYADSVKGRLTLSRDKGKNTVYLQLNSLKPEDTAVYYCYGFGVREGRGNVYWGQGTQVTVS
no binding	0	–	sdAb F3 (VHH) VHH: DVQLQESGGGLVQAGGSLKLSCAASRGSLSRWDVAWFRQAPGKERSFVTRISWSGTTSYYADAVKGRFAISRDNAKNTVYLQMNSLKPEDTAVYYCAVALYGNRGYYDVNAHSYWGQGTQVTVS
–	90	250	A1A1(G4S)4 (VHH, monospecific, bivalent control of two A1 linked by (G4S)4) EVQLLESGGGLVQPGGSLRLSCAASGFTFGNYDMAWVRQAPGKRPEWVSSIDTGGDITHYADSVKGRFTISRDNAKNTLYLQMNSLRPEDTAVYWCATDEEYALGPNEFDYYGQGTLVTVSGGGGSGGGGSGGGGSGGGGSEVQLLESGGGLVQPGGSLRLSCAASGFTFGNYDMAWVRQAPGKRPEWVSSIDTGGDITHYADSVKGRFTISRDNAKNTLYLQMNSLRPEDTAVYWCATDEEYALGPNEFDYYGQGTLVTVS
no binding	< 20	–	sdAb F4 (VHH) VHH: DVQLQESGGGLVQAGGSLRLSCAVSGLSFSSMGWFRQPPGKEREFVAAISLYSGSTYYADSVKGRFTISSDNAKSTVYLQMNSLKPEDAAVYFCAADRQRTWSTFYASRQATYNYWGQGTQVTVTS
no binding	0	–	sdAb F1 (VHH) VHH: DVQLQESGGGLVQAGGSLKLSCAASGGSLSRYDMGWFRQAPGKEREFVARISWSGTTKYYADAVKGRFAISRDNAKNTVYLQMNSLKPEDTAVYYCAAAFYGNRGYYDVNAYTSSGQGTQVTVS
